The values that follow come from patent US20230227832, “ANTICANCER APTAMERS AND USES THEREOF” (CONSIGLIO NAZIONALE DELLE RICERCHE, published 2023).

For series [1], the target named is Serum albumin (HSA) (Homo sapiens, UniProt P02768 P02768:25-609). Put plainly: ELONA; plate coated with 30 nM HSA; figure legend says bovine serum albumin. To be noted: tags: Sigma Aldrich; label: biotin. How it is done: For ELONA, wells of a 96-well High Binding microplate (Nunc MaxiSorp) were left uncoated or coated with exosomes (4 μg) o.n. All the subsequent steps were performed at room temperature. Following incubation, the plate was blocked with 300 μl 3% BSA (AppliChem) in PBS for 2 hours and incubated with 100 μL biotinylated aptamers (Tebu-bio), dissolved in PBS for 2 hours. Then the plate was washed three times with 300 μl PBS and streptavidin-HPR dissolved in 100 μl PBS (Sigma Aldrich) was added with dilution 1:10000. After 1 hour of incubation, the plate was washed three times before the addition of the TMB developing solution. The reaction was stopped with 0.16 M sulfuric acid and signal strength was analyzed by measuring absorbance at 450 nm with a microplate reader (Thermo Scientific).
Chain of Serum albumin (HSA) (P02768 25-609, one chain of several): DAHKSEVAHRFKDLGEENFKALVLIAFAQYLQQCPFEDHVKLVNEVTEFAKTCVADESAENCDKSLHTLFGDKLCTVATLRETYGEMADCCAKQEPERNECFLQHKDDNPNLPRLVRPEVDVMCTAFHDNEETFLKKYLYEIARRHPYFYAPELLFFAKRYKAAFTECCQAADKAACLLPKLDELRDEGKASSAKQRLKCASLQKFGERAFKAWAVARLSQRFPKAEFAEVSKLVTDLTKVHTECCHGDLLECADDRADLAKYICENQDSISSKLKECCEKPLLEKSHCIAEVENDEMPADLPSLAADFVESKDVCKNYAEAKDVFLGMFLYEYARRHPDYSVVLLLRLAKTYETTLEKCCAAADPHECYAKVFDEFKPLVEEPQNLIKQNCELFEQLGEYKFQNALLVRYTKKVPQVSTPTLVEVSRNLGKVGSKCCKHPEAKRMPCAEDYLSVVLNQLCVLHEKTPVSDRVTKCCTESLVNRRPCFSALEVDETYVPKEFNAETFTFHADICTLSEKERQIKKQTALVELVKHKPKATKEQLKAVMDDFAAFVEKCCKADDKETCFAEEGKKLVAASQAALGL
MDA-MB-231-derived exosomes and increasing concentrations of aptamer (ex-50.T or control) were used to calculate the binding affinity. The Kd was determined by means of GraphPad Prism. To verify the binding on human serum alumina (HSA), the plate coating was performed at 30 nM HSA (Sigma Aldrich).

In series [2] the target is T1, Gremlin-1 (GREM1), recombinant human (Homo sapiens, UniProt O60565 O60565:25-184).
T1 sequence: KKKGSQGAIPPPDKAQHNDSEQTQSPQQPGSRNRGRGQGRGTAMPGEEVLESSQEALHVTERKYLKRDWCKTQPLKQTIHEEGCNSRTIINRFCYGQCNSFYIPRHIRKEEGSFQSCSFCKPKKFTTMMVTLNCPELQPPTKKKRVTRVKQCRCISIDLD
Put plainly: ELONA; room temperature, PBS; biotinylated aptamer, streptavidin-HRP. The note with it: label: biotin.

On to UGUGGCAGUUAAGAAUAGAUCUUCGCUGCGAUU (ssRNA, 2'-F pyrimidines (2'-F-C, 2'-F-U; per library chemistry)) [ex-50.T], for which the binding result in series [1] was “no binding”. Moreover, the Kd (in general, the constant that tells how readily two partners part at equilibrium) in series [2] is 37.7 nM.
